Where no end group is shown, it is not given here.
Tests used:
[1] = molecular target: T1, mouse REC114 residues 1–158 (REC114N) (mouse, UniProt Q9CWH4 1-158, selenomethionine derivative (in the crystals)); test: crystal structure
T1 sequence (looked up): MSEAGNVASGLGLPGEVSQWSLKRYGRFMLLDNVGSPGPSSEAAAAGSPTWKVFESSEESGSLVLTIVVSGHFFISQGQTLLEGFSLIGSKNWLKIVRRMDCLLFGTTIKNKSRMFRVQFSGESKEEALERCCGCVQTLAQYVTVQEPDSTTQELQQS

[2] = molecular target: T1, mouse REC114 residues 1–158 (REC114N); test: pull-down

Binder	binding result [1]	binding result [2]
SRESMQTIPHYLQIKEILQISKQELLPCHVMEQHWKFYVGRSHSEALLSW (domain or fragment, UniProt A0A140LI88 1808-1857, looked up, also: selenomethionine derivative) [mouse ANKRD31 residues 1808–1857 (ANKRD31C)]	binds	–
SRESMQTIPHYLQIKEILQISKQELLPCHVMEQHWKFYVGRSHSEALLSW (domain or fragment, mouse, UniProt A0A140LI88 1808-1857, looked up) [GST-tagged ANKRD31C]	–	binds

From PMC6555648 (Molecular cell, 2019)
